Source: patent WO2016071355A1 (dated 2016)
Blank lines part the entries; values can stand above or below the binder they belong to.

Columns and labels:
[1] = biological target: T1, human CD38 peptide-Fc fusion F3 (human, UniProt P0DOX5 223-449 = IgG part); assay: SPR
T1 construct: doubtful; also called F3 construct

[2] = biological target: T2, human CD38 peptide-Fc fusion F6 (human, UniProt P0DOX5 195-449 = IgG part); assay: SPR
[3] = biological target: T3, human CD38 peptide-Fc fusion F7 (human, UniProt P0DOX5 223-449 = IgG part); assay: SPR, antibody immobilized, peptide-Fc injected at 1000 nM
[4] = biological target: T4, human CD38 peptide-Fc fusion F15 (human, UniProt P0DOX5 223-449 = IgG part); assay: as above
[5] = biological target: T5, human CD38 peptide-Fc fusion F16 (human, UniProt P0DOX5 223-449 = IgG part); assay: as above
[6] = biological target: T6, human CD38 peptide-Fc fusion F9 (human, UniProt P0DOX5 223-449 = IgG part); assay: as above
[7] = biological target: T7, human CD38 peptide-Fc fusion F2 (human, UniProt P0DOX5 223-449 = IgG part); assay: as above
[8] = biological target: T8, human CD38 peptide-Fc fusion F11 (human, UniProt P0DOX5 223-449 = IgG part); assay: as above
[9] = biological target: T9, human CD38 peptide-Fc fusion F1 (human, UniProt P0DOX5 223-449 = IgG part); assay: as above
[10] = biological target: T1, human CD38 peptide-Fc fusion F3; assay: as above
[11] = biological target: T10, human CD38 peptide-Fc fusion F20 (human, UniProt P0DOX5 223-449 = IgG part); assay: as above
[12] = biological target: T11, human CD38 peptide-Fc fusion F10 (human, UniProt P0DOX5 223-449 = IgG part); assay: as above
[13] = biological target: T12, human CD38 peptide-Fc fusion F8 (human, UniProt P0DOX5 223-449 = IgG part); assay: as above
[14] = biological target: T13, human CD38 peptide-Fc fusion F13 (human, UniProt P0DOX5 223-449 = IgG part); assay: as above
[15] = biological target: T14, human CD38 peptide-Fc fusion F17 (human, UniProt P0DOX5 223-449 = IgG part); assay: as above
[16] = biological target: T15, human CD38 peptide-Fc fusion F5 (human, UniProt P0DOX5 223-449 = IgG part); assay: as above
[17] = biological target: T16, human CD38 peptide-Fc fusion F12 (human, UniProt P0DOX5 223-449 = IgG part); assay: as above
[18] = biological target: T2, human CD38 peptide-Fc fusion F6; assay: as above
[19] = biological target: T17, human CD38 peptide-Fc fusion F4 (human, UniProt P0DOX5 223-449 = IgG part); assay: as above
T17 construct: doubtful

[20] = biological target: T18, human CD38 peptide-Fc fusion F14 (human, UniProt P0DOX5 223-449 = IgG part); assay: as above
[21] = biological target: T19, human CD38 peptide-Fc fusion F18 (human, UniProt P0DOX5 223-449 = IgG part); assay: as above
[22] = biological target: T20, human CD38 peptide-Fc fusion F19 (human, UniProt P0DOX5 223-449 = IgG part); assay: as above
[23] = biological target: T21, soluble extracellular region of human CD38 fused to a 6-His-tag (human, UniProt P28907 43-300); assay: SPR, equilibrium response, antibody captured on protein G
T21 construct: also called human CD38 extracellular domain with a poly-histidine tag; human CD38 antigen

[24] = biological target: T22, soluble extracellular region of cynomolgus monkey CD38 antigen fused to a 6-His-tag (cynomolgus monkey, UniProt Q5VAN0 45-301); assay: SPR
T22 construct: also called cynomolgus CD38

[25] = biological target: T3, human CD38 peptide-Fc fusion F7; assay: SPR, antibody immobilized, peptide-Fc injected at 15 nM and 200 nM
[26] = biological target: T4, human CD38 peptide-Fc fusion F15; assay: as above
[27] = biological target: T5, human CD38 peptide-Fc fusion F16; assay: as above
[28] = biological target: T6, human CD38 peptide-Fc fusion F9; assay: as above
[29] = biological target: T7, human CD38 peptide-Fc fusion F2; assay: as above
[30] = biological target: T8, human CD38 peptide-Fc fusion F11; assay: as above
[31] = biological target: T9, human CD38 peptide-Fc fusion F1; assay: as above
[32] = biological target: T1, human CD38 peptide-Fc fusion F3; assay: as above
[33] = biological target: T10, human CD38 peptide-Fc fusion F20; assay: as above
[34] = biological target: T11, human CD38 peptide-Fc fusion F10; assay: as above
[35] = biological target: T12, human CD38 peptide-Fc fusion F8; assay: as above
[36] = biological target: T13, human CD38 peptide-Fc fusion F13; assay: as above
[37] = biological target: T14, human CD38 peptide-Fc fusion F17; assay: as above
[38] = biological target: T15, human CD38 peptide-Fc fusion F5; assay: as above
[39] = biological target: T16, human CD38 peptide-Fc fusion F12; assay: as above
[40] = biological target: T17, human CD38 peptide-Fc fusion F4; assay: as above
[41] = biological target: T18, human CD38 peptide-Fc fusion F14; assay: as above
[42] = biological target: T19, human CD38 peptide-Fc fusion F18; assay: as above
[43] = biological target: T20, human CD38 peptide-Fc fusion F19; assay: as above

binding result [1]: no binding | binding result [2]: binds
B1: SAR650984 antibody (antibody, human IgG1, kappa, V domains shown)
VH: QVQLVQSGAEVAKPGTSVKLSCKASGYTFTDYWMQWVKQRPGQGLEWIGTIYPGDGDTGYAQKFQGKATLTADKSSKTVYMHLSSLASEDSAVYYCARGDYYGSNSLDYWGQGTSVTVSS
VL: DIVMTQSHLSMSTSLGDPVSITCKASQDVSTVVAWYQQKPGQSPRRLIYSASYRYIGVPDRFTGSGAGTDFTFTISSVQAEDLAVYYCQQHYSPPYTFGGGTKLEIKR
notes: also called humanized SAR650984 antibody

binding result [3]: no binding (tested: 1000 nM) | binding result [4]: no binding (tested: 1000 nM) | binding result [5]: no binding (tested: 1000 nM) | binding result [6]: no binding (tested: 1000 nM) | binding result [7]: no binding (tested: 1000 nM) | binding result [8]: no binding (tested: 1000 nM) | binding result [9]: no binding (tested: 1000 nM) | binding result [10]: binds | binding result [11]: no binding (tested: 1000 nM) | binding result [12]: no binding (tested: 1000 nM) | binding result [13]: no binding (tested: 1000 nM) | binding result [14]: no binding (tested: 1000 nM) | binding result [15]: no binding (tested: 1000 nM) | binding result [16]: no binding (tested: 1000 nM) | binding result [17]: no binding (tested: 1000 nM) | binding result [18]: no binding (tested: 1000 nM) | binding result [19]: no binding (tested: 1000 nM) | binding result [20]: no binding (tested: 1000 nM) | binding result [21]: no binding (tested: 1000 nM) | binding result [22]: no binding (tested: 1000 nM) | Kd [23]: ~300 nM | Kd [24]: ~1200 nM
B2: human 767 antibody (antibody, V domains shown)
VH: QVQLVESGGGLVQPGGSLRLSCAASGFTFSSYWMSWVRQAPGKGLEWVANIKQDGSEKYYVDSVKGRFTISRDNAKNSLYLQMNSLRAEDTAVYYCAREGRTGYFDYWGQGTLVTVSS
VL: QSVLTQPPSASGTPGQRVTISCSGSTSNIGTNYVYWYQQLPGTAPKLLIYRNDQRPSGVPDRFSGSKSGTSASLAISGLRSEDEADYYCAAWDDSRSGVYAFGTGTKVTVLR
notes: Human IgG1

binding result [25]: no binding (tested: 200 nM) | binding result [26]: no binding (tested: 200 nM) | binding result [27]: no binding (tested: 200 nM) | binding result [28]: no binding (tested: 200 nM) | binding result [29]: no binding (tested: 200 nM) | binding result [30]: no binding (tested: 200 nM) | binding result [31]: no binding (tested: 200 nM) | binding result [32]: no binding (tested: 200 nM) | binding result [33]: no binding (tested: 200 nM) | binding result [34]: no binding (tested: 200 nM) | binding result [35]: no binding (tested: 200 nM) | binding result [36]: no binding (tested: 200 nM) | binding result [37]: no binding (tested: 200 nM) | binding result [38]: no binding (tested: 200 nM) | binding result [39]: no binding (tested: 200 nM) | binding result [40]: no binding (tested: 200 nM) | binding result [41]: no binding (tested: 200 nM) | binding result [42]: no binding (tested: 200 nM) | binding result [43]: no binding (tested: 200 nM)
B3: humanized 9G7 antibody (best-fit version) of Example 10 (antibody, human IgG1, kappa, V domains shown)
VH: QVTLKESGPTLVKPTQTLTLTCTFSGLSLSTSGKGVGWIRQPPGKALEWLAHIWWDDDKRYNPALKSRLTITKDTSKNQVVLTMTNMDPVDTATYYCARIELGRSYVMDYWGQGTLVTVSS
VL: DIQMTQSPSSLSASVGDRVTITCQASQDVITSVAWFQQKPGKAPKLLIYSASYRYTGVPSRFSGSGSGTDFTFTISSLQPEDIATYYCQQHYTIPLTFGQGTKLEIKR
notes: also called h9G7
